From patent US20260159606A1 (VIB VZW, published 2026)

Legend:
[1] = biological target: T1, HN of hPIV-1-GFP virus (on virions and on hPIV-1-infected cells) (human parainfluenza virus 1 (hPIV-1), UniProt P16071 1-575); test: cell-based or functional assay
T1 sequence: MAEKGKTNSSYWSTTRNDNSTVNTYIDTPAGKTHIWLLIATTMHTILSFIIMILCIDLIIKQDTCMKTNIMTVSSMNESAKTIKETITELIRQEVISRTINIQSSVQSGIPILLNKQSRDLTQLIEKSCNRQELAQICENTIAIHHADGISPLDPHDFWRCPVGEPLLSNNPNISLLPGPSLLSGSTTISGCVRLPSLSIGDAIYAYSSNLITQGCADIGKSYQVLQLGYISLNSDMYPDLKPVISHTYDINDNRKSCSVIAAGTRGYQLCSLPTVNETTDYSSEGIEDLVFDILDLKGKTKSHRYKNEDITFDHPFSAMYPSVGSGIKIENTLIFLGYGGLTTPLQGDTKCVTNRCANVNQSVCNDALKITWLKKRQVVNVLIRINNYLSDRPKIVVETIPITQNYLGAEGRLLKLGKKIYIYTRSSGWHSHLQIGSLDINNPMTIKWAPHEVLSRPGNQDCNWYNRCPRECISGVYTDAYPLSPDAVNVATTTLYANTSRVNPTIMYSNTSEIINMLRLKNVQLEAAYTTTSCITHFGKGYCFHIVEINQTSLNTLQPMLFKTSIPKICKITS

[2] = biological target: HN of hPIV-3-GFP virus (on virions and on hPIV-3-infected cells) (human parainfluenza virus 3 (hPIV-3), UniProt P08492 1-572); test: cell-based or functional assay
[3] = biological target: T2, hPIV-3 hemagglutinin-neuraminidase (HN), expressed on transfected HEK293T cells (human parainfluenza virus 3 (hPIV-3), UniProt P08492 1-572); test: flow cytometry on transfected HEK293T cells, 10 µg/ml (FIG. 16A)
T2 construct: also called hPIV-3 HN; HN3
T2 chain: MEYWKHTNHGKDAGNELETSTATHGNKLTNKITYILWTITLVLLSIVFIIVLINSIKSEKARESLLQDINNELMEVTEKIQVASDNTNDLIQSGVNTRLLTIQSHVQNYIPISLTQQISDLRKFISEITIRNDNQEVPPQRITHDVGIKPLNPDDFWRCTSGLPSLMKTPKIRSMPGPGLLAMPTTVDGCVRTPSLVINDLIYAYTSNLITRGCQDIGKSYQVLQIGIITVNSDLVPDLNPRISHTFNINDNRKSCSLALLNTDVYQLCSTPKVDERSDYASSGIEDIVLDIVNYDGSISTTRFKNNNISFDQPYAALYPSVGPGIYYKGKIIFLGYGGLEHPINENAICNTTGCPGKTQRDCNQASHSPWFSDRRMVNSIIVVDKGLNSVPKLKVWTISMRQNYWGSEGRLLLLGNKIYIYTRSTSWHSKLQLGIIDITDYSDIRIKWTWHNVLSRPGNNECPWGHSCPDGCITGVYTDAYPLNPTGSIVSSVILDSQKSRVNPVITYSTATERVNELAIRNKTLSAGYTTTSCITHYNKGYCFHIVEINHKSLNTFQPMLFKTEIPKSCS

[4] = biological target: T3, D275N- and R277T-mutant hPIV-3 HN, expressed on transfected HEK293T cells (human parainfluenza virus 3 (hPIV-3), UniProt P08492 1-572); test: flow cytometry on transfected HEK293T cells, VHH 1 or 0.1 µg/ml (FIG. 11C)
T3 construct: also called mut HN3
T3 chain: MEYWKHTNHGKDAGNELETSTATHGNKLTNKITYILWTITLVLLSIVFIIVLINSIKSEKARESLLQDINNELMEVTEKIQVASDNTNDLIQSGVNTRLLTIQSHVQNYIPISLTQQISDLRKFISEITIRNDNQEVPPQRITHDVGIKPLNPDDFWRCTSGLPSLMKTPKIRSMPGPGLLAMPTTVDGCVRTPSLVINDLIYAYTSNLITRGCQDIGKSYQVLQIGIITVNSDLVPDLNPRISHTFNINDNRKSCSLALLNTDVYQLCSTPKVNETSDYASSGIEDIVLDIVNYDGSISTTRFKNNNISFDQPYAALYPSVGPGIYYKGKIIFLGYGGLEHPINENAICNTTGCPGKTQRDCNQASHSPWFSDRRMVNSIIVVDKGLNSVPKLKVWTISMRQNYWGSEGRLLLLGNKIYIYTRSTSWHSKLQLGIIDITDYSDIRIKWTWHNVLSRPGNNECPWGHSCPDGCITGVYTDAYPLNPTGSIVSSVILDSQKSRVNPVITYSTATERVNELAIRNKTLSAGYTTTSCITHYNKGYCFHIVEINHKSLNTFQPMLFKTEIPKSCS

[5] = biological target: T2, hPIV-3 hemagglutinin-neuraminidase …
[6] = biological target: T3, D275N- and R277T-mutant hPIV-3 HN, …; test: flow cytometry on transfected HEK293T cells (FIG. 11C)
[7] = biological target: T4, hPIV-3 fusion protein (F), expressed on transfected HEK293T cells (human parainfluenza virus 3 (hPIV-3), UniProt P06828 19-539); test: flow cytometry on transfected HEK293T cells (FIG. 4)
T4 construct: whole, on cells

[8] = biological target: T5, hPIV-1 hemagglutinin-neuraminidase (HN), expressed on transfected HEK293T cells (human parainfluenza virus 1 (hPIV-1), UniProt P16071 1-575); test: flow cytometry on transfected HEK293T cells
T5 construct: whole, on cells; also called hPIV-1 HN; HN1
T5 sequence: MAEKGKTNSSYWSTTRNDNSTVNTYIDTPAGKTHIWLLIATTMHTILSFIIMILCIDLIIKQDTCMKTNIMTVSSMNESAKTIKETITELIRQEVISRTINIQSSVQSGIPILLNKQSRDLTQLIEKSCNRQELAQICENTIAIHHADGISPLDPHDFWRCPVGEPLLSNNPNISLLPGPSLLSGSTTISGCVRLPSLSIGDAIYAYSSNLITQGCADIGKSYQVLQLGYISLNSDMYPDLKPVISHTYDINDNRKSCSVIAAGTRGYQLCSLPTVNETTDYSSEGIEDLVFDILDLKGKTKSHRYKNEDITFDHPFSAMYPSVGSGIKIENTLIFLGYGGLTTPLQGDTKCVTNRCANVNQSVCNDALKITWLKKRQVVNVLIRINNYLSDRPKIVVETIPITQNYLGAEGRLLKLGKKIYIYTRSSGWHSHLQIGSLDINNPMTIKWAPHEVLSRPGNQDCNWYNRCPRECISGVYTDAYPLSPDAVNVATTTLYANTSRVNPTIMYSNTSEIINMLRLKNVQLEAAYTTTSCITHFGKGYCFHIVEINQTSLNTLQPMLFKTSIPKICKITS

B1: bivalent VHH A2R3-59-59 (VHH)
chain: QVQLQESGGGLVQPGGSLRLSCAASGSISGINGMGWYRQAPGKQRELVAAITSGGSTNYADSVKGRFTISRDNAKNTVDLQMNSLQPEDTAVYYCYVSSTPSWGLYDDYWGQGTQVTVSSGGGGSGGGGSGGGGSQVQLQESGGGLVQPGGSLRLSCAASGSISGINGMGWYRQAPGKQRELVAAITSGGSTNYADSVKGRFTISRDNAKNTVDLQMNSLQPEDTAVYYCYVSSTPSWGLYDDYWGQGTQVTVSS
notes: also called bivalent A2R3-59
IC50 of neutralization of hPIV-1-GFP on Vero (E6) TMPRSS2 cells [1]: 2.9 nM | fold higher potency of hPIV-3-GFP neutralization than the monovalent counterpart [2]: ~8 fold | binding result [3]: binds | binding result [4]: binds

B2: VHH A2R3-55 (VHH)
VHH: QVQLQESGGGLVQAGGSLRLSCAASGSIDRIDAMGWSRQAPGKQRELVATITTGGITNYAVSVKGRFTISRDNAKNTVYLQMNSLKPEDTAVYYCNAQGAPSWGLYEDYWGQGTQVTVSS
fold reduction of binding at 500 µg/ml of zanamivir [5]: ~5 fold | binding result [6]: no binding (tested: 1 or 0.1 µg/ml) | binding result [7]: no binding (tested: 1 µg/ml) | binding result [8]: no binding
